Our source for the Kd and koff values is paper PMC7010609 (2020).

The target of assay [1] is T1, Xenopus laevis StrepII-FANCD2 (Xenopus laevis).
T1 chain: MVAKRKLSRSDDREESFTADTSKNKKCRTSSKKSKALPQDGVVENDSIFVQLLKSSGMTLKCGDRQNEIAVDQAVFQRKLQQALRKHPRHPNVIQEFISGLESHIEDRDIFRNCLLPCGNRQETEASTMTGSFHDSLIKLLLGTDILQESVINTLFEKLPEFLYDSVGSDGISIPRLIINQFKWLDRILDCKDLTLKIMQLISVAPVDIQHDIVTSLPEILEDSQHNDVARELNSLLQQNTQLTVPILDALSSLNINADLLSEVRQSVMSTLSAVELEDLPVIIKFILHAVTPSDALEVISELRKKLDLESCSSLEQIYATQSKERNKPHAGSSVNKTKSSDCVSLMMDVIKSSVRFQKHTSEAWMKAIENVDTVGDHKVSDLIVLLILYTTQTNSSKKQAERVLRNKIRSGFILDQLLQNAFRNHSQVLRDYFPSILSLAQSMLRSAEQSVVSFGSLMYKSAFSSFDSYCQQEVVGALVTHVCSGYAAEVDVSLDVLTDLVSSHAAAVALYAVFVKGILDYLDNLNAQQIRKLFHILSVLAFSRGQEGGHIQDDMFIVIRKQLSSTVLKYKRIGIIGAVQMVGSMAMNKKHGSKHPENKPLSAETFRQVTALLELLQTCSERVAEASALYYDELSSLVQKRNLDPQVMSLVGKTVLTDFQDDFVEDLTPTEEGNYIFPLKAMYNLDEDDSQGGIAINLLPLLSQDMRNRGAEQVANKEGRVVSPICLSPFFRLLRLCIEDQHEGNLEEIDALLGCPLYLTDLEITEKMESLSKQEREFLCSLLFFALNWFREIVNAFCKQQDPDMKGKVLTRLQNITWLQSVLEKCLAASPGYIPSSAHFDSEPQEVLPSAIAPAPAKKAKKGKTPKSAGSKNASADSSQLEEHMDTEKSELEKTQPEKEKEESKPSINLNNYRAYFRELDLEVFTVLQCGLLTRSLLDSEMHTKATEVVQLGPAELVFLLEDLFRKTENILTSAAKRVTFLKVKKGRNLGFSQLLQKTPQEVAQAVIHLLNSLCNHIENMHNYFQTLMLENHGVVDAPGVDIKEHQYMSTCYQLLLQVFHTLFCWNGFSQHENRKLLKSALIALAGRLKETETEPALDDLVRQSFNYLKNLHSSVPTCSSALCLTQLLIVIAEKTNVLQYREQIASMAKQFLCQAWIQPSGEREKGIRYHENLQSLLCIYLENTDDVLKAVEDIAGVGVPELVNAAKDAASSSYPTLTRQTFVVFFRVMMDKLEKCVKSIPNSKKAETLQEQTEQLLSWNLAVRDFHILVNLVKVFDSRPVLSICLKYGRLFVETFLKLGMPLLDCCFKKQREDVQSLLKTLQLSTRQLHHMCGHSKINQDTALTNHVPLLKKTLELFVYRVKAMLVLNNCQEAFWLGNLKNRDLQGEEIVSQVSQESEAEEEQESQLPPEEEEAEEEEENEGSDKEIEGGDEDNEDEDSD
Briefly: BLI. A general note: BLI is a label-free optical method that tracks binding on a fibre tip over time.

Assay [2] has as its target T1, Xenopus laevis StrepII-FANCD2. The experiment in a line: BLI.
Assay [3] has as its target T2, Xenopus laevis StrepII-FANCD2.
T2 chain: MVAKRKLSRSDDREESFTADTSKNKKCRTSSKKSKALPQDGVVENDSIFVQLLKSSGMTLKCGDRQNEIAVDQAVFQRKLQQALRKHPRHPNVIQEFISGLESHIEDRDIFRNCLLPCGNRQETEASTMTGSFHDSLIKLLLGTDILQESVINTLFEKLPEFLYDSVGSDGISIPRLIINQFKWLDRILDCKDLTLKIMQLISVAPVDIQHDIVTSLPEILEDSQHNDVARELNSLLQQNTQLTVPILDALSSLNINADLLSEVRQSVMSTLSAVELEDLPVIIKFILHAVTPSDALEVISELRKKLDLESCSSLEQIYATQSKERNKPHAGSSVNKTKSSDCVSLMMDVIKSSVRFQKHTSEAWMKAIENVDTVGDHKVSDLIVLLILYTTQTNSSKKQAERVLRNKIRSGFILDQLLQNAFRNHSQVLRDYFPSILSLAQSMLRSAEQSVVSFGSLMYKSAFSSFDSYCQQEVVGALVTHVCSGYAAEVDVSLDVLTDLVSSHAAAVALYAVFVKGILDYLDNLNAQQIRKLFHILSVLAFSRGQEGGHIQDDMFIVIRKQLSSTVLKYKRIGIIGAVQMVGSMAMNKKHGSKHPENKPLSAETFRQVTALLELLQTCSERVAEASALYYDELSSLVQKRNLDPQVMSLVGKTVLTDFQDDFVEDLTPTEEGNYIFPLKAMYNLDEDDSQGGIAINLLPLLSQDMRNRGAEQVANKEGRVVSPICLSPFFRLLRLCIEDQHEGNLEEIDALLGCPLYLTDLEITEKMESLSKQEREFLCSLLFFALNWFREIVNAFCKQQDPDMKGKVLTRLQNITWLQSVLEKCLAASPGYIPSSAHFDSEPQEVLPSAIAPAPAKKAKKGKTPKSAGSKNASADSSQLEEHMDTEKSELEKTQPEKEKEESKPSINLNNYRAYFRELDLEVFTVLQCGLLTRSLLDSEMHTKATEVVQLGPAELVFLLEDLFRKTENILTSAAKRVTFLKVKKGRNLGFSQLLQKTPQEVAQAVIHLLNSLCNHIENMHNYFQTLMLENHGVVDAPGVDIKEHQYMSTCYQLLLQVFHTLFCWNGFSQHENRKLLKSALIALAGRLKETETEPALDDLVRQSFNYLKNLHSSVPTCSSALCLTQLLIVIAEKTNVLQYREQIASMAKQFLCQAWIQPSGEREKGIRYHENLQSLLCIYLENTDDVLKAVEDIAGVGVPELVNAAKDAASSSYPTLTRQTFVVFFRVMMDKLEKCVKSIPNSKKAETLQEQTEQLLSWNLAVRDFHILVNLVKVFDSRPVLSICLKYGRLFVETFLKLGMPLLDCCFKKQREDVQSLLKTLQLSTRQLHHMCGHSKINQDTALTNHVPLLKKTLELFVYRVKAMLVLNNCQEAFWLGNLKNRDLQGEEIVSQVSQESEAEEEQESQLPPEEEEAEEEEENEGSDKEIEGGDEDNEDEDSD
Briefly: Biolayer interferometry (BLItz). As to conditions: chain shown with the change; StrepII-FANCD2-loaded biosensors in 20 ng/mL solution; FANCI 62.5-1000 nM.

B1: Xenopus laevis Flag-FANCI S6D phosphomimic mutant (natural protein)
chain: MDQKILSLAAEEQNDGLQSCLQNLKETELSEIITKHAVKGKDCGALLRGVFKGSPCSHDVAVRRRLAVYRHCIQLVESGDLQREVASEIMGLLMLEVHHFPGASLIELANLFADAVKAGTLSNGKSLDLFPTVLTALSSKESLAYGKGELTGEEFKKQLINSLCSSRWDPQSVIFLTSMFRDVSLSAEELQFVVEKVLRMLSKLDLQEMPPLVYQLLLLSAKGSKKNIVEGIITIFNDLDQKQLVQQENSESLDLEDATIPQDQLHHVEGTIILHIVFAIKLDQELGRELLKYLKAGQQGDTSKILCPFSAALLLSVSRIHRFQEQVFDFLKSTILRGYKDLQFHQSSKFLQDLVPQPVCVSSILLETVKNSVYGWDHVTQGLVELGFILMDSFGPKAAFGNKVVELISVHSRTPSQQACQLGSRILLETFKVHEPIRSEILEQVLNRVITKAATPVTHFIDLLSDIVVSAPLILQNSSSKVTEAFDHLSFLPLTTVQGLLKAVQPLLKISMSMRDSLILVLRKAMFSSQIDARKSAVAGFLLLLRNFKVLGSLSSDQCDQAIGADQIQVDVHMRYNAAANEAFCLEILGSLRRCLDQQADVRLMLYEGFYDVLRRNDQLASSVMQTLLDQLKRYYEPEPDLLPPLKLEGCITAQGDHIFLQEPLAHLLCCIHHCLQWYKSSLQQHRNPDEDDDDDDQTGCQQDLNDIMESITRRMIKCDLEDFELDKSADFSLASGVGVKNNIYAVLVMGICEVLIEYNFIIANFSKSKFEDILGLFKCYSKLSDILKEKAAKGRQPGNNKTARSLISMTFVSTLLTALFRDSTRSHEESLSILRANVDFMRYSVCVALQKIQQLEETGVTDGPDGQNSEKMFRSLCEITRVLMWRYTSIPAAAENPGKKDKGKTISLLCLEGLLRVFNTVQQRYPSKIPQFLTALDALGDEDEEGSREINVTEKAAFQIKQFQRSLINQLSGGEDDFNSKEALLLVSILSTLSRLLAPSSQQFVQMLSWTVKICKETNIEDVQFCKGIMNLLFSLHVQFKSPVSVLRELCQDIHGHLGDIDQDIEVEKQSHFATVSLKTAAPTVTLLVLGQAAKVLEEVDWLIIKLKGLLGSEKLSTEDLTQTSNARVPIEKAIILQLGTLLTACHELVQTALPAGSCTDTLLKELAKMYTILTSVVKYYLQICSSHGGQISARLEKLVKLSGSHLTPQCYAFITYVQNIHSESLSLAAEKKKKKKEEALTVTSAKILRDTKPIPNLIFAIEQYEKFLIHLSKKSKVNLMQYMKLSTSRDFRINAATLDAALQEKGSEDEENEPDNEQAVTEEESQEPKKKRRRK
modifications: Full length assumed, since construct limits are not printed. Flag tag left out. The L homeolog is assumed; if it has no entry or the checks fail, try fanci.S or fanci. Expressed in Hi5 insect cells.
In turn, B1 yielded a Kd in assay [1] of 136 nM. Also, the off-rate (koff) in assay [2] was determined as 0.0061 s⁻¹.

B2: Xenopus laevis Flag-FANCI wild type S557D; S560D; S566D; S597D; S618D; S630D (protein)
chain: MDQKILSLAAEEQNDGLQSYLQNLKETELSEIITKHAVKGKDCGALLRGVFKGSPCSHDVAVRRRLAVYRHCIQLVESGDLQREVASEIMGLLMLEVHHFPGASLIELANLFADAVKAGTLSNGKSLDLFPTVLTALSSKESLAYGKGELTGEEFKKQLINSLCSSRWDPQSVIFLTSMFRDVSLSAEELQFVVEKVLRMLSKLDLQEMPPLVYQLLLLSAKGSKKNIVEGIITIFNDLDQKQLVQQENSESLDLEDATIPQDQLHHVEGTIILHIVFAIKLDQELGRELLKYLKAGQQGDSSKILCPFSAALLLSVSRIHRFQEQVFDFLKSTILRDYKDLQFHQSSKFLQDLVPQPVCVSSILLETVKNSVYGWDHVTQGLVELGFILMDSFGPKAAFGNKVVELISVHSRTPSQQACQLGSRILLETFKVHEPIRSEILEQVLNRVITKAATPVTHFIDLLSDIVVSAPLILQNSSSKVTEAFDHLSFLPLTTVQGLLKAVQPLLKISMSMRDSLILVLRKAMFSSQIDARKSAVAGFLLLLRNFKVLGSLSSDQCDQAIGADQIQVDVHMRYNAAANEAFCLEILGSLRRCLDQQADVRLMLYEGFYDVLRRNDQLASSVMQTLLDQLKRYYEPEPDLLPPLKLEGCITAQGDHIFLQEPLAHLLCCIHHCLQWYKSSLQQHRNPDEDDDDDDQTGCQQDLNDIMESITRRMIKCDLEDFELDKSADFSLASGVGVKNNIYAVLVMGICEVLIEYNFIIANFSKSKFEDILGLFKCCSKLSDILKEKAAKGRQPGNNKTARSLISMTFVSTLLTALFRDSTRSHEESLSILRANVDFMRYSVCVALQKIQQLEETGVTDGPDGQNSEKMFRSLCEITRVLMWRYTSIPAAAENPGKKDKGKTISLLCLEGLLRVFNTVQQRYPSKIPQFLTALDALGDEDEEGSREINVTEKAAFQIKQFQRSLINQLSGGEDDFNSKEALLLVSILSTLSRLLAPSSQQFVQMLSWTVKICKETNIEDVQFCKGIMNLLFSLHVQFKSPVSVLRELCQDIHGHLGDIDQDIEVEKQSHFATVSLKTAAPTVTLLVLGQAAKVLEEVDWLIIKLKGLLGSEKLSTEDLTQTSNARVPIEKAIILQLGTLLTACHELVQTALPAGSCTDTLLKELAKMYTILTSVVKYYLQICSSHGGQISARLEKLVKLSGSHLTPQCYAFITYVQNIHSESLSLAAEKKKKKKEEALTVTSAKILRDTKPIPNLIFAIEQYEKFLIHLSKKSKVNLMQYMKLSTSRDFRINAATLDAALQEKGSEDEENEPDNEQAVTEEESQEPKKKRRRK
In assay [3], B2 registered a dissociation constant Kd of 136 nM and a dissociation rate constant (koff) of 0.0061 s⁻¹.

What is called Kd is a measure of binding affinity in units of concentration. Low readings indicate higher affinity, high ones lower affinity. For orientation: koff means a measure of how fast the partners let go of each other.
